The target in this assay is IL-2 receptors (high-affinity IL-2Rαβγ or intermediate-affinity IL-2Rβγ) on PBMC lymphocytes (UniProt P01589). Nature of the assay: cell-based or functional assay.
Sequence of IL-2 receptors (high-affinity IL-2Rαβγ or intermediate-affinity IL-2Rβγ) on PBMC lymphocytes (P01589 22-272 limits assumed, chain 1 of 3): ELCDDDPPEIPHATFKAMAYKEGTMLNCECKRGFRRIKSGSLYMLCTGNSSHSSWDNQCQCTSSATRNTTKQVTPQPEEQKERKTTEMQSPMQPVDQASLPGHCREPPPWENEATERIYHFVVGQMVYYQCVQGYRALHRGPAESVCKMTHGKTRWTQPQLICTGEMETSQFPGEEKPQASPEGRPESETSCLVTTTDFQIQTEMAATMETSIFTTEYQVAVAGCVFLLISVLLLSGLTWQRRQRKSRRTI
Sequence of IL-2 receptors (high-affinity IL-2Rαβγ or intermediate-affinity IL-2Rβγ) on PBMC lymphocytes (P14784 27-551 limits assumed, chain 2 of 3, further chain): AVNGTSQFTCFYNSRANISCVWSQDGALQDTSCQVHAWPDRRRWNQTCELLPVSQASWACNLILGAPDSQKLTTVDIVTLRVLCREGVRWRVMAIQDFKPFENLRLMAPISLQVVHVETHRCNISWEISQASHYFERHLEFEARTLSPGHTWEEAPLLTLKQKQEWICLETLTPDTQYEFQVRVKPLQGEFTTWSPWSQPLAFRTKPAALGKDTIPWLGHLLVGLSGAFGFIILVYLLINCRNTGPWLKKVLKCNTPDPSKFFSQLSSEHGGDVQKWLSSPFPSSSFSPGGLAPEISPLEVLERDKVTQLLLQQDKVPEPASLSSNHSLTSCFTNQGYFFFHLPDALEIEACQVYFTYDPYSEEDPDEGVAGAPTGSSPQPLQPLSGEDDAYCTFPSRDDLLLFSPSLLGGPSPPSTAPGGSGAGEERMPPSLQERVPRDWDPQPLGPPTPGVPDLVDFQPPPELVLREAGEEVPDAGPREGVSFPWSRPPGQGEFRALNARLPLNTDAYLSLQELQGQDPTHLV
Sequence of IL-2 receptors (high-affinity IL-2Rαβγ or intermediate-affinity IL-2Rβγ) on PBMC lymphocytes (P31785 23-369 limits assumed, chain 3 of 3, further chain): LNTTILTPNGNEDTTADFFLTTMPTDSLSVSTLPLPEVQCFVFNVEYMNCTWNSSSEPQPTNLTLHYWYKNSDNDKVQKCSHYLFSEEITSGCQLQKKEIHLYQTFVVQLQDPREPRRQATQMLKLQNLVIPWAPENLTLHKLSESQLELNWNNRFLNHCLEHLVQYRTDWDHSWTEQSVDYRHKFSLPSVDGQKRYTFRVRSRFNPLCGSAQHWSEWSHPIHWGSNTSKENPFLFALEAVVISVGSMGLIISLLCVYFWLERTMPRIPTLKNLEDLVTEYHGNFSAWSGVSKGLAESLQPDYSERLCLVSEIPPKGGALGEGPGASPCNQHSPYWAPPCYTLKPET

In the case of “XENP27193, an Fc-IL-2(V91K/C125A) fusion as described in WO 2014/153111 (from UniProt P60568 21-153) (Fc fusion)”, the EC50, induction of STAT5 phosphorylation (in vitro potency) was 0.01 nM.

Values taken from patent US20250092108A1.
